Substitutions are numbered along the chain they refer to. Like-named read-outs stand apart in the source and are kept apart here.
Columns and labels:
bio-RBD Fc Acro = bio-RBD Fc Acro (SARS-CoV-2); test: SPR, single trace
bio-S ecto Sino [1] = target: T1, bio-S ecto Sino (SARS-CoV-2, UniProt P0DTC2 16-1213)
[2] = target: T2, SARS-CoV-2 (COVID-19) S protein RBD (cat. SPD-C5255, lot. BV3539b-203FF1-203K) (SARS-CoV-2, UniProt P0DTC2 319-537)
S ecto U [3] = target: T3, S ecto U (SARS-CoV-2, UniProt P0DTC2 16-1213)
S ecto U [4] = target: T3, S ecto U; test: SPR, ProteOn XPR36, fitted curves (FIG. 9c)
bio-S ecto Sino [5] = target: T1, bio-S ecto Sino; test: single trace
[6] = target: T2, SARS-CoV-2 (COVID-19) S protein RBD …; remark: listed apart in the source
bio-S ecto Sino [7] = target: T1, bio-S ecto Sino; remark: listed apart in the source
bio-S ecto Sino [8] = target: T1, bio-S ecto Sino; remark: listed apart in the source
bio-S1 Acro [9] = target: T4, bio-S1 Acro (SARS-CoV-2, UniProt P0DTC2 16-685); test: SPR
bio-S1 Acro [10] = target: T4, bio-S1 Acro; test: SPR, single trace

B1: vS07_26C03 (designed binder)
chain: MRGSHHHHHHGSDLGWKLLWAAQVGQDDEVRILLAAGADVNAKDDLGWTPLHIAAWVGHLEIVEVLLKAGADVNAKDFTGRTPLHHAATEGHLEIVKVLLKAGADVNAQDDVGHTPADLAALWGHEDIAEVLQKAA
notes: also called RN2
bio-RBD Fc Acro
  binding result: binds
bio-S ecto Sino [1]
  Kd: 23 nM

B2: ALE033 (designed binder)
chain: MRGSHHHHHHGSDLGKKLLEAARAGQDDEVRELLKAGADVNAKDYFSHTPLHLAARNGHLKIVEVLLKAGADVNAKDFAGKTPLHLAANEGHLEIVEVLLKAGADVNAQDIFGKTPADIAADAGHEDIAEVLQKAAGSPTPTPTTPTPTPTTPTPTPTGSDLGKKLLEAARAGQDDEVRELLKAGADVNAKDYFSHTPLHLAARNGHLKIVEVLLKAGADVNAKDFAGKTPLHLAANEGHLEIVEVLLKAGADVNAQDIFGKTPADIAADAGHEDIAEVLQKAAGSPTPTPTTPTPTPTTPTPTPTGSDLGKKLLQAARAGQLDEVRELLKAGADVNAKDREGITPLHLAAQHGHLEIVEVLLKAGADVNAKDVWGRTPLHLAAWQGHLEIVEVLLKAGADVNAKDLAGATPLHVAALYGHLEIVEVLLKAGADVNAQDKSGKTPADLAARAGHQDIAEVLQKAAGSPTPTPTTPTPTPTTPTPTPTGSDLGKKLLQAARAGQLDEVRELLKAGADVNAKDREGKTPLHVAAQEGHLEIVEVLLKAGADVNAKDVWGRTPLHLAAWIGHLEIVEVLLKAGADVNAKDVSGATPLHAAALHGHLEIVEVLLNAGADVNAQDKSGKTPADLAARAGHQDIAEVLQKAAGSPTPTPTTPTPTPTTPTPTPTGSDLGKKLLQAARAGQLDEVRELLKAGADVNAKDREGITPLHLAAQHGHLEIVEVLLKAGADVNAKDVWGRTPLHLAAWQGHLEIVEVLLKAGADVNAKDLAGATPLHVAALYGHLEIVEVLLKAGADVNAQDKSGKTPADLAARAGHQDIAEVLQKAA
[2]
  kon: 1.54e+06 M⁻¹ s⁻¹

B3: vS07_14G03 (designed binder)
chain: MRGSHHHHHHGSDLGQKLLHAAQYGQDDEVRILLAAGADVNAKDKQGNTPLHIAAFHGHLEIVEVLLKAGADVNAKDQWGLTPLHLAAAWGHLEIVEVLLKAGADVNAQDNYGQTPADLAAESGHEDIAEVLQKAA
notes: also called S2a
S ecto U [3]
  koff: 0.00352 s⁻¹
  kon: 4.49e+06 M⁻¹ s⁻¹
S ecto U [4]
  Kd: 0.79 nM

B4: vS07_07F02 (designed binder)
chain: MRGSHHHHHHGSDLGLKLLTAAKQGQDDEVRILLAAGADVNAKDYRGLTPLHYAAAIGHLEIVEVLLKAGADVNAKDQYGATPLHVAAYIGHLEIVEVLLKAGADVNAQDFSGSTPADLAAEEGHEDIAEVLQKAA
notes: also called RN1
bio-S ecto Sino [5]
  Kd: 14 nM
bio-RBD Fc Acro
  binding result: binds

B5: ALE030 (designed binder)
chain: MRGSHHHHHHGSDLGKKLLEAARAGQDDEVRELLKAGADVNAKDYFSHTPLHLAARNGHLKIVEVLLKAGADVNAKDFAGKTPLHLAANEGHLEIVEVLLKAGADVNAQDIFGKTPADIAADAGHEDIAEVLQKAAGSPTPTPTTPTPTPTTPTPTPTGSDLGKKLLEAARAGQDDEVRELLKAGADVNAKDYFSHTPLHLAARNGHLKIVEVLLKAGADVNAKDFAGKTPLHLAANEGHLEIVEVLLKAGADVNAQDIFGKTPADIAADAGHEDIAEVLQKAAGSPTPTPTTPTPTPTTPTPTPTGSDLGKKLLQAARAGQLDEVRELLKAGADVNAKDREGITPLHLAAQHGHLEIVEVLLKAGADVNAKDVWGRTPLHLAAWQGHLEIVEVLLKAGADVNAKDLAGATPLHVAALYGHLEIVEVLLKAGADVNAQDKSGKTPADLAARAGHQDIAEVLQKAAGSPTPTPTTPTPTPTTPTPTPTGSDLGNKLLDAAWVGQDDEVRILLAAGADVNAKDWQGETPLHLAATKGHLEIVEVLLKAGADVNAKDVVGYTPLHVAASQGHLEIVEVLLKAGADVNAQDVHGYTPADLAAQAGHEDIAEVLQKAAGSPTPTPTTPTPTPTTPTPTPTGSDLGKKLLQAARAGQLDEVRELLKAGADVNAKDREGKTPLHVAAQEGHLEIVEVLLKAGADVNAKDVWGRTPLHLAAWIGHLEIVEVLLKAGADVNAKDVSGATPLHAAALHGHLEIVEVLLNAGADVNAQDKSGKTPADLAARAGHQDIAEVLQKAA
[6]
  Kd: 0.142 pM
  koff: 1.15e-07 s⁻¹
  kon: 810000 M⁻¹ s⁻¹

B6: vS07_23E04 (designed binder)
chain: MRGSHHHHHHGSDLGKKLLQAARAGQLDEVRELLKAGADVNAKDQEGITPLHVAAHQGHLEIVEVLLKAGADVNAKDVWGRTPLHLAAWRGHLEIVEVLLKAGADVNAKDHAGATPLHAAALSGHLEIVEVLLKAGADVNAQDKSGKTPADLAARAGHQDIAEVLQKAA
notes: also called R3c
bio-RBD Fc Acro
  binding result: binds
bio-S ecto Sino [7]
  koff: 0.000234 s⁻¹
  kon: 2.59e+06 M⁻¹ s⁻¹
bio-S ecto Sino [1]
  Kd: 0.09 nM

B7: vS07_22E12 (designed binder)
chain: MRGSHHHHHHGSDLGKKLLQAARAGQLDEVRELLKAGADVNAKDKIGVTPLHIAAEVGHLEIVEVLLKAGADVNAKDVWGRTPLHLAAWSGHLEIVEVLVKAGADVNAKDIAGATPLHAAALFGHLEIVEVLLKVGADVNAQDKSGKTPADLAARAGHQDIAEVLQKAA
notes: also called R3a
bio-RBD Fc Acro
  binding result: binds
bio-S ecto Sino [7]
  koff: 0.000308 s⁻¹
  kon: 1.3e+06 M⁻¹ s⁻¹
bio-S ecto Sino [1]
  Kd: 0.24 nM

B8: vS07_06F12 (designed binder)
chain: B6 chain with Q45R, I48W, V53L, W79F, R90V, H111V, A112S, A119P, L122I, S123Y
notes: also called R1a
bio-RBD Fc Acro
  binding result: binds
bio-S ecto Sino [1]
  Kd: 0.25 nM
bio-S ecto Sino [8]
  koff: 0.000243 s⁻¹
  kon: 963000 M⁻¹ s⁻¹

B9: vS07_12C06 (designed binder)
chain: B6 chain with Q45R, I48K, H56Q, Q57E, R90I, H111V, A112S, S123H, K134N
notes: also called R1b; Rb1
bio-RBD Fc Acro
  binding result: binds
bio-S ecto Sino [1]
  Kd: 0.021 nM
bio-S ecto Sino [8]
  koff: 2.64e-05 s⁻¹
  kon: 1.26e+06 M⁻¹ s⁻¹

B10: vS07_29B10 (designed binder)
chain: B6 chain with Q45R, V53L, H56Q, Q57H, R90Q, H111L, A119V, S123Y
notes: also called R3b
bio-RBD Fc Acro
  binding result: binds
bio-S ecto Sino [7]
  koff: 0.000148 s⁻¹
  kon: 1.82e+06 M⁻¹ s⁻¹
bio-S ecto Sino [1]
  Kd: 0.081 nM

B11: vS07_08F10v47 (designed binder)
chain: MRGSHHHHHHGSDLGKKLLLAARAGQLDEVRILLKAGADVNAKDVFGQTPLHTAAVAGHLEIVEVLLKAGADVNAKDKVGYTPLHLAAQSGHLEIVEVLLKAGADVNAKDVVGVTPADLAAFEGHQDIAEVLQKAA
bio-S1 Acro [9]
  binding result: binds

B12: vS07_19G10 (designed binder)
chain: MRGSHHHHHHGSDLGNKLLDAAWVGQDDEVRILLAAGADVNAKDWQGETPLHLAATKGHLEIVEVLLKAGADVNAKDVVGYTPLHVAASQGHLEIVEVLLKAGADVNAQDVHGYTPADLAAQAGHEDIAEVLQKAA
notes: also called R2a
bio-RBD Fc Acro
  binding result: binds
bio-S ecto Sino [1]
  Kd: 0.26 nM
bio-S ecto Sino [8]
  koff: 0.000179 s⁻¹
  kon: 693000 M⁻¹ s⁻¹

B13: vS07_08F10 (designed binder)
chain: MRGSHHHHHHGSDLGHKLLLAAQAGQDDEVRILLAAGADVNAKDVFGQTPLHVAAVAGHLEIVEVLLKAGADVNAKDSIGYTPLHHAARVGHLEIVEVLLKAGADVNAQDWIGITPADLAAFEGHEDIAEVLQKAA
notes: also called S1a
S ecto U [3]
  koff: 0.00086 s⁻¹
  kon: 695000 M⁻¹ s⁻¹
bio-S1 Acro [10]
  Kd: 20 nM
S ecto U [4]
  Kd: 1.2 nM

B14: vS07_08F10v27 (designed binder)
chain: B13 chain with H16K, Q23R, D27L, A35K, Q109K, E126Q
bio-S1 Acro [9]
  binding result: binds

— patent US20220235103A1 (Molecular Partners, published 2022)
